Measurements published in PMC4924701.

Biological target: GADS (UniProt O75791)
Assay: anti-FLAG co-IP, Western blot
Settings: reference: wild-type FLT3

| Substance | binding against the reference (sites Y955) | binding against the reference (sites Y955,Y969) |
| --- | --- | --- |
| FLT3 (from UniProt P36888) FLT3-Y955F | weaker | – |
| FLT3 (from UniProt P36888) FLT3-Y955F-Y969F | – | lost |
